Results on 6 molecules are retold here after patent US20140087995A1 (published 2014).

Numbered stars: 1 amine (or outer) side, 2 acyl side, 3 side chain; on linkers, the order of the positions; unused ones are H or OH. Bridge positions count the residues as written; N and C are the ends. Side chains are listed from the residue outwards. Ends that are not written are not given here. * marks the point of attachment. C20 diacid = O=C(O)CCCCCCCCCCCCCCCCCCC(=O)*; γGlu = O=C(O)[C@H](CCC(=O)[*:2])N[*:1]

T1: human calcitonin receptor (human, UniProt P30988 25-474)
T1 construct: whole, on cells; also called hCTR; hCT
T1 sequence (looked up): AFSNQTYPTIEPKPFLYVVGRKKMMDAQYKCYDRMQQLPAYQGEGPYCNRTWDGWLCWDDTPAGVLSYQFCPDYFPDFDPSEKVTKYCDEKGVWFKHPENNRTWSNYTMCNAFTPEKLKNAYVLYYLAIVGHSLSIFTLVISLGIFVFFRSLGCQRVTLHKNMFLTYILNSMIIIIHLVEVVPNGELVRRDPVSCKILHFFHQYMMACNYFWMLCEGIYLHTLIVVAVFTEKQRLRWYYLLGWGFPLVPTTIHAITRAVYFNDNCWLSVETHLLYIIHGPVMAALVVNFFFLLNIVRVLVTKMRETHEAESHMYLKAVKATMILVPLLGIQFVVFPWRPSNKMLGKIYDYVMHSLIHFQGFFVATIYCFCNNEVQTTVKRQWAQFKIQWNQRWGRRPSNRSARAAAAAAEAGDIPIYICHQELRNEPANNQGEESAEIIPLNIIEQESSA

B1: N^ε1-[(4S)-4-carboxy-4-(19-carboxynonadecanoylamino)butanoyl]-[Arg17,Pro21,Pro27,Arg34]-h-amylin (peptide)
peptide: K([γGlu-C20 diacid])CNTATCATQRLANFLRHSSPNFGAIPSSTNVGRNTY-NH2
modifications: disulfide 2-7; N-terminus assumed
SMILES: CC[C@H](C)[C@H](NC(=O)[C@H](C)NC(=O)CNC(=O)[C@H](Cc1ccccc1)NC(=O)[C@H](CC(N)=O)NC(=O)[C@@H]1CCCN1C(=O)[C@H](CO)NC(=O)[C@H](CO)NC(=O)[C@H](Cc1c[nH]cn1)NC(=O)[C@H](CCCNC(=N)N)NC(=O)[C@H](CC(C)C)NC(=O)[C@H](Cc1ccccc1)NC(=O)[C@H](CC(N)=O)NC(=O)[C@H](C)NC(=O)[C@H](CC(C)C)NC(=O)[C@H](CCCNC(=N)N)NC(=O)[C@H](CCC(N)=O)NC(=O)[C@@H](NC(=O)[C@H](C)NC(=O)[C@@H]1CSSC[C@H](NC(=O)[C@@H](N)CCCCNC(=O)CC[C@H](NC(=O)CCCCCCCCCCCCCCCCCCC(=O)O)C(=O)O)C(=O)N[C@@H](CC(N)=O)C(=O)N[C@@H]([C@@H](C)O)C(=O)N[C@@H](C)C(=O)N[C@@H]([C@@H](C)O)C(=O)N1)[C@@H](C)O)C(=O)N1CCC[C@H]1C(=O)N[C@@H](CO)C(=O)N[C@@H](CO)C(=O)N[C@H](C(=O)N[C@@H](CC(N)=O)C(=O)N[C@H](C(=O)NCC(=O)N[C@@H](CCCNC(=N)N)C(=O)N[C@@H](CC(N)=O)C(=O)N[C@H](C(=O)N[C@@H](Cc1ccc(O)cc1)C(N)=O)[C@@H](C)O)C(C)C)[C@@H](C)O
notes: also called compound 79
B2: N^ε1-[(4S)-4-carboxy-4-(19-carboxynonadecanoylamino)butanoyl]-[Glu14,Arg17,Pro21,Pro27,Arg34,Glu35]-h-amylin (peptide)
peptide: K([γGlu-C20 diacid])CNTATCATQRLAEFLRHSSPNFGAIPSSTNVGRETY-NH2
modifications: disulfide 2-7; N-terminus assumed
SMILES: CC[C@H](C)[C@H](NC(=O)[C@H](C)NC(=O)CNC(=O)[C@H](Cc1ccccc1)NC(=O)[C@H](CC(N)=O)NC(=O)[C@@H]1CCCN1C(=O)[C@H](CO)NC(=O)[C@H](CO)NC(=O)[C@H](Cc1c[nH]cn1)NC(=O)[C@H](CCCNC(=N)N)NC(=O)[C@H](CC(C)C)NC(=O)[C@H](Cc1ccccc1)NC(=O)[C@H](CCC(=O)O)NC(=O)[C@H](C)NC(=O)[C@H](CC(C)C)NC(=O)[C@H](CCCNC(=N)N)NC(=O)[C@H](CCC(N)=O)NC(=O)[C@@H](NC(=O)[C@H](C)NC(=O)[C@@H]1CSSC[C@H](NC(=O)[C@@H](N)CCCCNC(=O)CC[C@H](NC(=O)CCCCCCCCCCCCCCCCCCC(=O)O)C(=O)O)C(=O)N[C@@H](CC(N)=O)C(=O)N[C@@H]([C@@H](C)O)C(=O)N[C@@H](C)C(=O)N[C@@H]([C@@H](C)O)C(=O)N1)[C@@H](C)O)C(=O)N1CCC[C@H]1C(=O)N[C@@H](CO)C(=O)N[C@@H](CO)C(=O)N[C@H](C(=O)N[C@@H](CC(N)=O)C(=O)N[C@H](C(=O)NCC(=O)N[C@@H](CCCNC(=N)N)C(=O)N[C@@H](CCC(=O)O)C(=O)N[C@H](C(=O)N[C@@H](Cc1ccc(O)cc1)C(N)=O)[C@@H](C)O)C(C)C)[C@@H](C)O
B3: N^ε1-[(4S)-4-carboxy-4-(19-carboxynonadecanoylamino)butanoyl]-[Glu14,Arg17,Pro21,Pro27,Pro34,Arg35]-h-amylin (peptide)
peptide: K([γGlu-C20 diacid])CNTATCATQRLAEFLRHSSPNFGAIPSSTNVGPRTY-NH2
modifications: disulfide 2-7; N-terminus assumed
SMILES: CC[C@H](C)[C@H](NC(=O)[C@H](C)NC(=O)CNC(=O)[C@H](Cc1ccccc1)NC(=O)[C@H](CC(N)=O)NC(=O)[C@@H]1CCCN1C(=O)[C@H](CO)NC(=O)[C@H](CO)NC(=O)[C@H](Cc1c[nH]cn1)NC(=O)[C@H](CCCNC(=N)N)NC(=O)[C@H](CC(C)C)NC(=O)[C@H](Cc1ccccc1)NC(=O)[C@H](CCC(=O)O)NC(=O)[C@H](C)NC(=O)[C@H](CC(C)C)NC(=O)[C@H](CCCNC(=N)N)NC(=O)[C@H](CCC(N)=O)NC(=O)[C@@H](NC(=O)[C@H](C)NC(=O)[C@@H]1CSSC[C@H](NC(=O)[C@@H](N)CCCCNC(=O)CC[C@H](NC(=O)CCCCCCCCCCCCCCCCCCC(=O)O)C(=O)O)C(=O)N[C@@H](CC(N)=O)C(=O)N[C@@H]([C@@H](C)O)C(=O)N[C@@H](C)C(=O)N[C@@H]([C@@H](C)O)C(=O)N1)[C@@H](C)O)C(=O)N1CCC[C@H]1C(=O)N[C@@H](CO)C(=O)N[C@@H](CO)C(=O)N[C@H](C(=O)N[C@@H](CC(N)=O)C(=O)N[C@H](C(=O)NCC(=O)N1CCC[C@H]1C(=O)N[C@@H](CCCNC(=N)N)C(=O)N[C@H](C(=O)N[C@@H](Cc1ccc(O)cc1)C(N)=O)[C@@H](C)O)C(C)C)[C@@H](C)O
B4: N^ε1-[(4S)-4-carboxy-4-(19-carboxynonadecanoylamino)butanoyl]-[Glu14,Arg17,Pro21,Pro27,Pro34,Glu35]-h-amylin (peptide)
peptide: K([γGlu-C20 diacid])CNTATCATQRLAEFLRHSSPNFGAIPSSTNVGPETY-NH2
modifications: disulfide 2-7; N-terminus assumed
SMILES: CC[C@H](C)[C@H](NC(=O)[C@H](C)NC(=O)CNC(=O)[C@H](Cc1ccccc1)NC(=O)[C@H](CC(N)=O)NC(=O)[C@@H]1CCCN1C(=O)[C@H](CO)NC(=O)[C@H](CO)NC(=O)[C@H](Cc1c[nH]cn1)NC(=O)[C@H](CCCNC(=N)N)NC(=O)[C@H](CC(C)C)NC(=O)[C@H](Cc1ccccc1)NC(=O)[C@H](CCC(=O)O)NC(=O)[C@H](C)NC(=O)[C@H](CC(C)C)NC(=O)[C@H](CCCNC(=N)N)NC(=O)[C@H](CCC(N)=O)NC(=O)[C@@H](NC(=O)[C@H](C)NC(=O)[C@@H]1CSSC[C@H](NC(=O)[C@@H](N)CCCCNC(=O)CC[C@H](NC(=O)CCCCCCCCCCCCCCCCCCC(=O)O)C(=O)O)C(=O)N[C@@H](CC(N)=O)C(=O)N[C@@H]([C@@H](C)O)C(=O)N[C@@H](C)C(=O)N[C@@H]([C@@H](C)O)C(=O)N1)[C@@H](C)O)C(=O)N1CCC[C@H]1C(=O)N[C@@H](CO)C(=O)N[C@@H](CO)C(=O)N[C@H](C(=O)N[C@@H](CC(N)=O)C(=O)N[C@H](C(=O)NCC(=O)N1CCC[C@H]1C(=O)N[C@@H](CCC(=O)O)C(=O)N[C@H](C(=O)N[C@@H](Cc1ccc(O)cc1)C(N)=O)[C@@H](C)O)C(C)C)[C@@H](C)O
B5: N^ε1-[(4S)-4-carboxy-4-(19-carboxynonadecanoylamino)butanoyl]-[Glu14,Arg17,Pro21,Pro27,Pro34,His35]-h-amylin (peptide)
peptide: K([γGlu-C20 diacid])CNTATCATQRLAEFLRHSSPNFGAIPSSTNVGPHTY-NH2
modifications: disulfide 2-7
B6: N^ε1-[(4S)-4-carboxy-4-(19-carboxynonadecanoylamino)butanoyl]-[His14,Arg17,Pro21,Pro27,Arg34]-h-amylin (peptide)
peptide: K([γGlu-C20 diacid])CNTATCATQRLAHFLRHSSPNFGAIPSSTNVGRNTY-NH2
modifications: disulfide 2-7; N-terminus assumed
SMILES: CC[C@H](C)[C@H](NC(=O)[C@H](C)NC(=O)CNC(=O)[C@H](Cc1ccccc1)NC(=O)[C@H](CC(N)=O)NC(=O)[C@@H]1CCCN1C(=O)[C@H](CO)NC(=O)[C@H](CO)NC(=O)[C@H](Cc1c[nH]cn1)NC(=O)[C@H](CCCNC(=N)N)NC(=O)[C@H](CC(C)C)NC(=O)[C@H](Cc1ccccc1)NC(=O)[C@H](Cc1c[nH]cn1)NC(=O)[C@H](C)NC(=O)[C@H](CC(C)C)NC(=O)[C@H](CCCNC(=N)N)NC(=O)[C@H](CCC(N)=O)NC(=O)[C@@H](NC(=O)[C@H](C)NC(=O)[C@@H]1CSSC[C@H](NC(=O)[C@@H](N)CCCCNC(=O)CC[C@H](NC(=O)CCCCCCCCCCCCCCCCCCC(=O)O)C(=O)O)C(=O)N[C@@H](CC(N)=O)C(=O)N[C@@H]([C@@H](C)O)C(=O)N[C@@H](C)C(=O)N[C@@H]([C@@H](C)O)C(=O)N1)[C@@H](C)O)C(=O)N1CCC[C@H]1C(=O)N[C@@H](CO)C(=O)N[C@@H](CO)C(=O)N[C@H](C(=O)N[C@@H](CC(N)=O)C(=O)N[C@H](C(=O)NCC(=O)N[C@@H](CCCNC(=N)N)C(=O)N[C@@H](CC(N)=O)C(=O)N[C@H](C(=O)N[C@@H](Cc1ccc(O)cc1)C(N)=O)[C@@H](C)O)C(C)C)[C@@H](C)O
notes: also called compound 85

One assay has as its target T1, human calcitonin receptor. Kind of assay: SPA radioligand competition (125I-calcitonin), membranes of BHK cells with human calcitonin receptor. The essentials: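 BHK hCTR membranes 35 ng/μL + SPA beads 0.05 mg/well; buffer 50 mM Hepes pH 7.4, 1 mM CaCl2, 5 mM MgCl₂, 0.1% OA, 0.02% Tween20. 120 min, 25° C., shaking. Scintillation count; IC50 by one-site binding competition.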
In general, IC50 refers to the concentration that inhibits the measured activity by half. For B1, the half-maximal inhibitory concentration (IC50) worked out at 36.4 nM.

For the molecule B2, the IC50 is 6.62 nM.

Regarding B3, the half-maximal inhibitory concentration (IC50) worked out at 6.3 nM.

B4: the IC50 was found to be 1.86 nM.

For the molecule B5, the IC50 was 3.8 nM.

In the case of B6, the half-maximal inhibitory concentration (IC50) turned out to be 80.4 nM.

The next assay has as its target T1, human calcitonin receptor. Kind of assay: ratio of IC50 at human calcitonin receptor to IC50 at human amylin receptor (SPA competition assays). The method, boiled down: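 Competition binding by SPA uses membrane preparations (35 ng/μL final) in pH 7.4 Hepes buffer with 1 mM CaCl2 and 5 mM MgCl₂. Incubation lasts 120 min at 25° C, and IC₅₀ comes from one-site fitting.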
For the molecule B1, the “Ratio hCT/hAmylin binding” value worked out at 46.1.

B2: the “Ratio hCT/hAmylin binding” value stood at 28.5.

For B3, the “Ratio hCT/hAmylin binding” value was found to be 38.6.

On to B4, for which the “Ratio hCT/hAmylin binding” value came out at 13.3.

Turning to B5, the “Ratio hCT/hAmylin binding” value came out at 21.2.

For the molecule B6, the “Ratio hCT/hAmylin binding” value was found to be 91.8.
